Reference: paper PMC6019326
Where two headings read alike, the source gives them in different places.

Experiments:
Assay in all cases: SPR
[1] = biological target: recombinant APOL1 G1 protein (His-tag fused, risk variant) (human) (UniProt O14791)
[2] = biological target: recombinant APOL1 G2 protein (His-tag fused, risk variant) (human) (UniProt O14791)
[3] = biological target: recombinant APOL1 G0 protein (His-tag fused, reference allele) (human) (UniProt O14791)
[4] = biological target: recombinant APOL1 G1 protein (His-tag fused, risk variant) (human) (UniProt O14791); remark: listed apart in the source
[5] = biological target: recombinant APOL1 G2 protein (His-tag fused, risk variant) (human) (UniProt O14791); remark: listed apart in the source

Kd [1] [µM]	Kd [2] [µM]	Kd [3] [µM]	Kd [4] [µM]	Kd [5] [µM]	KD for suPAR in the presence of αvβ3 integrin (5 nM) with Mn2+ [1] [µM]	KD for suPAR in the presence of αvβ3 integrin (5 nM) with Mn2+ [2] [µM]	Substance
> 1000	> 1000	–	–	–	–	–	human integrin α3β1 (from UniProt P26006 33-1051; P05556 21-728) (complex)
0.528	10.7	0.574	0.007	0.007	–	–	human recombinant protein integrin αvβ3 (from UniProt P06756 31-1048; P05106 27-718) (complex)
–	–	–	–	–	0.277	0.024	human suPAR (soluble urokinase plasminogen activator receptor), recombinant (from UniProt Q03405 23-305)
